Results as given in article PMC10041110.

Target: Chikungunya virus nonstructural protein 1 (nsP1) capping pore (Chikungunya virus)
Assay: cryo-EM structure

Chikungunya virus nonstructural protein 1 (nsP1) capping pore (enzyme)
stoichiometry N: 12
